Results reported in the NTF2 design screens of Basanta et al. (2020).

assay: protease stability score; higher = more stable; yeast display proteolysis, trypsin and chymotrypsin;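 further: relative to predicted unfolded state with 0 unfolded-like and 1 meaning tenfold more protease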

Compared with “SELERQIERANRELVDIIYTGDEHLVDRMLDPRTLLTVGDKHTIGREEMIEWFKHHIREMRIRHSDTKDPHFINGVIDSHLYLDMEFDGRRFISRTRLIVLKIDGRWHIERITII”, “TEEEELEEKIARRFLTIWLTGDEERLRELADPNVRLEIDINGVTLEYHGRDELAHMFDHELKKLGFKHLHLESLRVINGVVHSNVRITFNGQERESKIINIVINGRLHTLILRWE” is higher in protease stability score: 0.687 for the first, 1.41 for the second.

First: SEEDQHIEEALRRISKVIHTGDEDKLEELVDPHVRLDVGDKVFHGWEDFVRFMTELRFHHMHVTHLETQGDKVRVELSLDREQGDKRKEMHAHIVLEKIDGKWVVREVEMR
Second: DEEHEVLRRMVERIREMEKTGDWERYATMADPNTRVDVNGVELHGMENVAFWFWLHLYRHGIEIKDIRVRDIKVQGEKYQEDGELYGHINGQTTILEVHLEITFVNGRIHSEKISIK
The protease stability score of the first is higher: 1.35 for the first, 1.25 for the second.

Going from “DESEKSAFRFFEEMTKVLSTGDEETFLKMLDPNTRLEVGDKERHGREDFIRLMRHLWEVLGADHVHIHVKDIKVVNGRADIDTDLIIYVNGKTIHRDTQIIVLKIDGRWVLTSMEVE” to “SEDHERTEIAFKIMLHIFDTGDEHTMHRLVDPNARLRIGDKDWHGREFFFDVISRIKNLRIEELSIEDDDFVNGRIILHGRRNGSIGDKEIDTIVHLLIKKVDGRWRIEHVHNE”, the protease stability score falls from 2.02 to 1.36.

First: DETNKTLKEVFRELVHSLFTGDEERLTELADPHARFHQGEKELHGREEISKEMSRMIERADHVKIILTHMEVQGDKIIIEGHLEIRVDGRRIDVSTTLILHKVNGRWFITEIHII
Second: HEHEQQVREIAKKLLHALLTGDEDEIYRLIDPNVRLIILVGDKEIHVHGRELVSEVMHKLFRELGVDHWHSRSELLIGNKFHVDTEQHFNGQTFETQVHILVIDGKVHLLTLQIH
The protease stability score of the first is lower: 0.241 for the first, 1.88 for the second.

Compared with “TELDKHVEDLLHRFIEALHTGNWEQLEHLVDPDARFDVDGRIHHGREWLLTHMTRIKNARIEFHHIEIYGDYISMRVIIHVNGQTRDFHLELITFNGRIKEVRIWHI”, “SEDEEDSKEAFRLVEEILITGNEEEIDDMADPHTRVQIGNKIWHGRELFLDWVREHLRRADVVRDVHLTHESAYDGKVELHMKVVIHYGDKTIDTEMVFVSRKIDGKWITHSITMV” is lower in protease stability score: 2.34 for the first, 1.18 for the second.

First: DDHDEELQRIVEIIFRHISTGNFDHLYKYLDPNVRMIIWIGDKNITAHGREHMSEVLHKLWKHLRIKDVDLHDVKSQGEKAIVDTHVHGIIDGKDTHIKTTLIVIIVDGRLKQMEVEVK
Second: SDLEEEINRFLTELLRDWETGNWKAFADLLDPHTRVLIDGKEHHGREIFLEHNHQLGIKHREFELKKFRIFENRVEFDGTLHLVYGDKRVHREIHIIILKIDGRWKITEIRFL
The protease stability score of the first is higher: 2.59 for the first, 1.54 for the second.

Going from “TEEDEMVHRQTEILEESIVTGDWKTLRNFVDPNMRLEIGDKTVHGWHAMSHILRRIDHINSVELHKVEVYGEKVHVDTIVDGIVDGRRTHLRTHIIALKFNGRWILTSNKIE” to “DKEEELVKKFLELWLHALRTGDEDFIRELFDPHARFVFDGRDFHGMEEFIRIMRHIRFHHIHLHHFDLQGDYVRLDTRVDGNVDGKRVTINTHMIMHKVNGRWVLESYTID”, the protease stability score falls from 1.03 to 0.839.

First: HEEKHEVQRFLEMLIELLVTGNEEILEHLADPHVRLEIDGRHFHGWKEFTRQYSELLKKLGADHVDMKIHEVHIIGDKVFIRGTDEFRVGDKTERKESHWVLLKVDGRWFIHSVKIG
Second: DELKKMLKEMEEFHTDLLETGDFEKIIRNVDPHVRIDVNGQEHHGWHEAVEFIREFIERFKNVKIIIEHVEIQGDKLILHMEFRQGEFHSRLIVYSLKVNGRWILKDMEIR
The protease stability score of the first is higher: 1.99 for the first, 1.67 for the second.

Compared with “DDREEELQHLMELILFLLVTGNEEIWMRMADPDVKSRISIGDKQETYHGRETVARYMIHERHFYKNIQVKFDDVQVQGDKVIVILTFHWNGREIEVIHTFIVINGKLTSWEVRFIHR”, “DEHEEKLIKHMESLLHWEETGDEESMLKNADPNARHDVNGVEFHGMHRFVHHVIKRGWRFRMEVEHVDAFDGRYRVEGTLILNFDGVEHRHHVILRFIVIDGRLHERKVEVR” is higher in protease stability score: 1.42 for the first, 1.46 for the second.

Going from “DEDEDDAERVFEELRKLIITGDEEEWEKLADPHVRVIINGRELHGREEWARFMRHMRIKNEHVHLRRMRVVDGRIEIDGEMDFRVDFNGQERRTRTDTNLIVTKYDGRWKLHHIEIR” to “DHQEHIIKVSLEILLESARTGDERSLERLFDPNVRIINENEERHGREALEILLKRIDHIHHLNIRDTRIQGDFLITEVHVRINVNGVHIQNDMVLYAWKVNGRWHIRSIEFK”, the protease stability score rises from 1.33 to 1.39.

Going from “SEKEEELHRALRLWLHAWETGDFHTITKLLDPHARSDVNGVELHGREEISRHHRELRTHDMRIRDEKVHMQGDYLIIILHIHTDVQIGDKRIETDLLIIIIHVKVNGRWSLRSISLEFR” to “DETDEHAHKMFEIIIHYLLTGDWKELIKLADPHVKLEFDINGKTIDLVGRELFTEFFLRFKNVRSEIDDVRHIGDKNHARVRVNWDGRDTEVQIDIVIIDGVVHRVRLIFK”, the protease stability score rises from 0.035 to 2.59.

Compared with “DEEEELNRRLVELMIRWHETGDFDMIEKYMDPDAKLNINGQEIHGMEKITNLFLWRFEFFKGAQYRMNRVRVQGDKASIDGRLNVDGRTHSIEIRIVIINGRNHSIEIHDR”, “DRHEETDRRAVKILLEVIRTGDFETFYRLMDPHARYEYGEKELHGRDKSLKLLEELLRRFGHDKVEVHLKTYSAIDGRMEIHSVVNYNGREHNLHIESDKVNGRWEIRDIHVL” is lower in protease stability score: 1.41 for the first, 1.09 for the second.

First: DEHEEQVRRFLHHLWRSVQTGDEHELANNFDPNTRVDVGDKHLHGMERFVYLIFEFARHWRIRHTTLHFIVRIGEFIEVDHILDGEIDGRRREVKMTIIIFKVDGRWIIRSMEVK
Second: SEDDKVVEEIARLWLHWVLTGDEEHLRELLDPHVRLHIDGRTYIGREEFLHKFHELRIHRFELKSIHVIGDKAQVDGHQDYKYNGKRIHLDTKVDLVVVDGVMHEIHIHLK
The protease stability score of the first is higher: 1.82 for the first, 1.78 for the second.

Compared with “SEDDEQAHRTIEIWLRASRTGNEEELERLADPHDKIEFNGREHHGREEFLKIMKHLRVHHMDVRDRTLIGDKINIDVILDLHFNGRRHIIELTTILVKINGRWFFKSWIFI”, “DEHEQEANEMMHRSLETLETGDERLLRHMADPNTKVQVGDKTWHGWHLLHEYRKEFRHARIIIREIDIQGEFVFLHGELDVNGKRLERTIIQLKVDGRWILHHMHLR” is lower in protease stability score: 1.21 for the first, 0.435 for the second.

Compared with “REDEKFRDYATHWLEKYVRTGDENLMEELIDPDVRVHVNGQENHGMDEMRKWMLELRIEHIIIRRIEIHVYDGVIEINIDSETRVNFNGRKIRTKVHIHTETRKIDGRWSISHLELRFK”, “NHDEEKTHEFKEKWMKDVTTGNEEEISKLMDPNAKIVVNGREYHGREKMWETIHRLLKILGISRVEVRIESVHIYDGRIEIHMRVHAENHESHIIVHVEKIDGRWSSKHLRID” is lower in protease stability score: 1.07 for the first, 0.968 for the second.

Going from “DEDKQHAEKVWRLFSKFVNTGDEESLNRLFDPDVKLRVGDKEFHGREEFVKFMSELYRRIDHVHWHFSHIEVVGEYIIIHGHTIFEVGDKKDSRDTRLIMFKVNGRWHIHHIRIE” to “SEEETMERLSIEITLEMLKTGDETEILKNMDPDARVIVGDKVYHGREHVIELWRRLGVKHSEPKHVYVINGRVHIDMEVHVDGKRFHVHIISHKINGQWSITNVKLEKE”, the protease stability score falls from 2.33 to 2.02.

Going from “DEREEMSRHMINLWNRHLETGDEDRISKLADPHVKVTNEDEEHVGRESAERFVRLMGFDHVHLHDIHIQGNKVISTVEIRIDGQTYQSDVVALKVDGKWKVKNVHIH” to “SKEEEHAYRVMEIILKQHLTGDEEEISRLLDPHVKMDVDGVILHGRENASRWLFEWIRFFKGLRLHIHIEDIQVQGEKSHHHTRLHITINGRTQNYRFKVHAVVVNGQIKHFELDWD”, the protease stability score rises from 0.711 to 1.39.

Compared with “DEDHELMRWMLELLIDHTLTGDEERIHELADPNVKIDVNGVELHGRHLWIKYLSELRIHKVEIRQTRLIDGVMHIDTSLDISYDGVRRETQHHLVILKINGKWMIHNVSYK”, “SEKEKDSRIAIELSLKLVLTGNPEMNRELVDPHARVEVGEKEYHGRDWVRYQLELLGIDHFEIHHVDMYGEYVDVTLELRVGDKSFRLILHLEKIDGRWIVRKVHVD” is higher in protease stability score: 1.15 for the first, 2.14 for the second.

Going from “HDKEKEDKEWIKRLLDTIETGDPEQFSHLADPNVKAEFENHDSVGMEEVFKILEHLRIDHVRMKDMRIQGDWVHLITEMDGTINGKKIILKSRIIALKVNGRWVLTSTSLK” to “SEEEHEFKKFLEHFLHRLTTGDEDELRRLADPHVRVLINGRHIVGMDEVTKVLRHLREIIEELRIDDIDLQGDKIRMDTRTRIRFIIGDWETKIETRTRIFIWKFNGRWIMEHIERD”, the protease stability score falls from 1.42 to 0.811.

First: SELEQELKHFVRLMKEIMRTGNWDLFERYADPNVRLEINGRDYIGRELASESLRHFVEEWGLDRVDVRVEHSSFQGDKAHSKINTDFNGQERTVHYDVLKVDGRWIVQRVRIE
Second: HESQEHDDRILDLFETLLRTGDWERLFQLADPHVRLRLHYGDKEIHQVGREEVVRMFLWWRERFGVDHFEVHEVRVVDGVNHIDGRLTVNGRNRRTEIVFIVVNGRIKEFEVRHR
The protease stability score of the first is lower: 2.06 for the first, 2.24 for the second.

Compared with “SEEEKLTREFAEMWRHTIETGDEEEMWRMADPNVRVDFDGKELHGRELFQEHFRKLGVDHFIVRRIHVQGEKLRIDGSHIYNGQHIHTELISQKVNGRWIIDQVKVH”, “DDWEEILREMIERWLKIFLTGDEEQLQRLADPDTRLNFNGREHHGMETLRRWRHRYEEEMRVRRINVKHEEFQGEKIRMDTELHTEVNGVKIITRTELIFIIINGRIKEVEIRVK” is lower in protease stability score: 1.36 for the first, 0.853 for the second.

Compared with “TEEEHLMKEMLDLWVEALMTGDEKLLSELMDPNTRFHLRYGDFLQDRHGRHIINHIIRHWRFHVFKIEDTKVFNGRAIADTHLDVEIDGRRVRTRTKVDLVTINGKIERLDLEID”, “DELKEILLRIIEKMLHALLTGNFEELLKNVDPRTRNDINGVDAVGRENIKRVWEEILRRIDHWEEVRIEDFRVQGDKVHIDGRLIMRVDGRREDTTTHLHIIVFNGRVESIKFEIR” is higher in protease stability score: 0.902 for the first, 1.57 for the second.

Going from “TEDDEHLEEEAEEYKEYVRTGDWKKIFELADPHTKIDIGNYKRHGMEDFLRDVIHVYTKLGVTIEHHVHDVRVINGRAHVNMEVRVHYGEKDERIKTTLIMRKVDGRWKLTSIHFK” to “TEEEEHASRIARLWLDMLLTGDWHTLDRLLDPHVRLEVNGQERIGREQIIKFEEERKRQLRINDVRTRHIHSQGDKLHIVTEADGEIDGKRTNVDTRIQIKVVDGVVEEVKFDIK”, the protease stability score falls from 1.15 to 0.736.

Compared with “DEDEELARQIWELFVRAEETGDEELLEKLIDPHTRLHIGDKVFHGRDAIKHIRKRVDHVKRVHVESIRVFDGRVEIHSRQRWEINGVEVEQKFRFTMQKINGRWIMHDMSIL”, “SEEEEIVEKMARDLFEAMRTGDEDTLLKLLDPNVKHHWNGVEYHGWHDLHHWVERFKNMKVHFRINSVKVIGEKVHIKGELNLIFNGKIIRTDVDIHINLFNGRIKESTSDTN” is higher in protease stability score: 1.79 for the first, 2.04 for the second.

Compared with “HEDDRIVQEHWKRLSEAWLTGDEERAKKNADPNTREVINGKELHGREEVTRLYREIRRSIEHVEIRDSRIQGDKLLIDVNMVISVIIGDKEFRIEVRVNVIMIKFDGVWHLETVHFH”, “NELEKWVEQATREILRVMETGDPNETEKLIDPHVRREQGEFIYHGWENITHFMEHARFERYKLHDVDLQGDYVNLNGRLDGVYNGKKERTEVEFYVLKINGRWHVTSMHVH” is higher in protease stability score: 0.187 for the first, 1.28 for the second.
